Experimental findings from paper PMC10393062 are described below.

The target of assay [1] is Venus-iLID-CaaX. Description: light-induced recruitment of a cytosolic prey to a plasma membrane bait (live-cell confocal microscopy); HeLa cells, 37°C; photo-activation with 488 nm laser light (1% intensity) every 2.5 s for 2 min; normalized membrane to cytosol intensity ratio of the prey; t½ ON and OFF from a mono-exponential fit to the mean.
Assay [2] deals with Venus-iLID-CaaX. The assay is described as follows: light-induced recruitment of a cytosolic prey to a plasma membrane bait (live-cell spinning disk microscopy); HeLa cells; 1 pulse of 440 nm laser light at 20% for 1 s; change in cytosolic intensity of the prey in percent, measured 20 s after stimulation.
In a further assay the target is Lck-mTurquoise2-iLID. Described as above.

As to “SspB-mScarlet-I (from UniProt P0AFZ3 1-165) (natural protein)”, in the assay with Venus-iLID-CaaX [1], the t½ OFF of recruitment (after 488 nm light) was determined as 20.3 s and the t½ ON of recruitment (488 nm light) turned out to be 5.14 s. This substance also showed a mean change in cytosolic intensity (recruitment efficiency) with Venus-iLID-CaaX [2] of 25.5%. The median change in cytosolic intensity (recruitment efficiency) in the assay with Lck-mTurquoise2-iLID is 36.7%.
